The test concerns the target TIR domain of Toll-like receptor 1 (TLR1-TIR), residues 625-786 of human TLR1 (human) (UniProt Q15399). Kind of test: dynamic light scattering; 100 uM TLR1-TIR, 10 °C, cytoplasm-like buffer, threefold molar excess of ZnCl2 (1:3 protein to metal).

Usually stoichiometry N stands for a count of units in the complex or per binding partner. “TIR domain of Toll-like receptor 1 (TLR1-TIR), residues 625-786 of human TLR1 (from UniProt Q15399 625-786) (domain or fragment)” gave a stoichiometry N of 5.
